Assay results as given in patent publication US20170224799A1 (UNIVERSITY OF CONNECTICUT, published 2017).

T1: H-2 D^d (mouse, UniProt P01900 25-311, limits assumed)
T1 construct: construct not described
T1 sequence (MHC heavy, looked up): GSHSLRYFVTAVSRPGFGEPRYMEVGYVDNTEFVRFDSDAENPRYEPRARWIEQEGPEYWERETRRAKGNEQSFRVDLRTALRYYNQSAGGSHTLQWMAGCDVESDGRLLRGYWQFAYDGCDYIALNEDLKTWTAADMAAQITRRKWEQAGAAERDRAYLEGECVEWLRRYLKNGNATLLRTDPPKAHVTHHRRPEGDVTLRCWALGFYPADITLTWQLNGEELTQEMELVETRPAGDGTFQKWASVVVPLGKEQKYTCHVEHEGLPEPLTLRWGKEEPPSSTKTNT

T2: H-2 L^d (mouse, UniProt P01897 25-309, limits assumed)
T2 construct: construct not described
T2 sequence (MHC heavy, looked up): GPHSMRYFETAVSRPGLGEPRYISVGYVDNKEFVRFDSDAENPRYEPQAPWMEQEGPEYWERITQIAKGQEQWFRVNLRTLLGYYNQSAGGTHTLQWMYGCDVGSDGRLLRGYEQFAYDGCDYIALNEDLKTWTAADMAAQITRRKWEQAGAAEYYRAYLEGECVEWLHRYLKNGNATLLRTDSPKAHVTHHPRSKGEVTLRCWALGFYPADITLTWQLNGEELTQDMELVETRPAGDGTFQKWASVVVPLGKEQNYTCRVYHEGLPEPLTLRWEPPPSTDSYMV


The binders below were run against H-2 K^d (mouse, UniProt P01902 22-305) (assay: competition with radiolabeled standard peptide, purified H-2 K^d).
H-2 K^d, sequence (P01902 22-305): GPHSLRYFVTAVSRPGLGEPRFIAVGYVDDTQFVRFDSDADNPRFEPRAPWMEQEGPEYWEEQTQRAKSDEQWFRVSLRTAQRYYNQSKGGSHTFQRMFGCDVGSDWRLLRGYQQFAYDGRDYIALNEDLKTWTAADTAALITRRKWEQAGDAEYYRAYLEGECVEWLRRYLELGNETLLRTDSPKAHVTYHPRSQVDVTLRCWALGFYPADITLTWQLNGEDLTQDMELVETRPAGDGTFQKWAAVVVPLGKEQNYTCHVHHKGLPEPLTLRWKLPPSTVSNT

Binder	IC50 [nM]
SYMLQALC [Tnpo3.4 Mut peptide SYMLQALC]	14900
SYMLQALCIP [Tnpo3.3 Mut peptide SYMLQALCIP]	67
EYLDLQTQG [Zfp236.2 Mut peptide EYLDLQTQG]	10000

Now from value to binder:

IC50 [nM]	Binder
89	LDMLQALC [Tnpo3.4 WT peptide LDMLQALC]
111	LDMLQALCIP [Tnpo3.3 WT peptide LDMLQALCIP]

These binders were tested against T1, H-2 D^d (assay: direct peptide-binding studies).

Binder	binding result
ELQGLLEDEL [Ccdc136 Mut peptide ELQGLLEDEL]	no binding
QVFPGLMEL [Atxn10.1 Mut peptide QVFPGLMEL]	no binding
ALKSEEKTL [Stau1.4 Mut peptide ALKSEEKTL]	no binding
DYVPMEQPR [Alkbh6.2 Mut peptide DYVPMEQPR]	no binding

Continued, values first:

binding result	Binder
no binding	VFPGLMEL [Atxn10.2 Mut peptide VFPGLMEL]
no binding	GFHGCIHEVL [Slit3 Mut peptide GFHGCIHEVL]

Each binder was assayed against T2, H-2 L^d (assay: direct peptide-binding studies).

Binder	binding result
ELQGLLEDEL [Ccdc136 Mut peptide ELQGLLEDEL]	no binding
QVFPGLMEL [Atxn10.1 Mut peptide QVFPGLMEL]	no binding
ALKSEEKTL [Stau1.4 Mut peptide ALKSEEKTL]	no binding
DYVPMEQPR [Alkbh6.2 Mut peptide DYVPMEQPR]	no binding

The next lines start with the values.

binding result	Binder
no binding	VFPGLMEL [Atxn10.2 Mut peptide VFPGLMEL]
no binding	GFHGCIHEVL [Slit3 Mut peptide GFHGCIHEVL]
